The values that follow are results of earlier work, collected in publication PMC3197213.

The target of the series is syntaxin-1 SNARE motif (Rattus norvegicus) (UniProt P32851).
Sequence of syntaxin-1 SNARE motif (Rattus norvegicus) (P32851 191-253): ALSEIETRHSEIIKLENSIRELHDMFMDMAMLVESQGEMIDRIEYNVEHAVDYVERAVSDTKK

The term Kd denotes the free concentration of one partner at which half of the binding sites on the other are occupied at equilibrium, for simple one-to-one binding. For the substance “Munc13-1 MUN domain (from UniProt Q62768)”, the Kd was 46 µM.
